Results on one substance are retold here after PMC9929037.

For this assay, the target named is nLUC-TaPYL-1D (Triticum aestivum (bread wheat)). As to the kind of experiment: split reporter (BiFC, NanoBiT); LCI of cLUC-TaPP2C-7A with nLUC-TaPYL-1D in N. benthamiana leaves with a third protein co-expressed (TN1-GFP, tn1-GFP or GFP empty vector); relative luminescence, GFP EV combination set to 1.

Regarding TN1-GFP (natural protein), the percent decrease of LUC intensity of cLUC-TaPP2C-7A/nLUC-TaPYL-1D against the GFP EV samples is above 50%.
